Data on 1 substance can be found in patent publication US20240125793A1.

In experiment [1] the target is MCC-I-E^k (soluble I-Ek exchanged with the MCC peptide) (murine) (UniProt P04224). As to the kind of experiment: SPR (Biacore T100), refolded TCR over peptide-exchanged biotinylated I-Ek on SA chip, equilibrium. In general terms: In SPR one partner is held on a chip, and binding of the other changes the refractive index at the surface.
Experiment [2] has as its target 5c3-I-E^k (murine) (UniProt P04224). The description is as above.
Experiment [3] deals with 5c1-I-E^k (murine) (UniProt P04224). The experiment is described as above.
Experiment [4] concerns the target MCC-I-E^k (soluble I-Ek exchanged with the MCC peptide) (murine) (UniProt P04224). Put plainly: cell-based or functional assay.
The target in experiment [5] is 5c1-I-E^k (murine) (UniProt P04224). As to the kind of experiment: cell-based or functional assay.

As for 5cc7 TCR, the Kd – broadly, a measure of binding affinity in units of concentration – in experiment [1] worked out at 41 µM; in experiment [2], 62 µM; in experiment [3], 115 µM. Also, the figures for the signaling potency (EC50) in experiment [4] and in experiment [5] were 0.0084 µM and 1.5 µM, respectively.
